Target: PU.1 DNA-binding domain (PU.1^DBD) (human, UniProt P17947 168-270)
Assay: NMR titration

B1: EWS low-complexity domain (EWS^LCD) (domain or fragment)
chain: ASTDYSTYSQAAAQQGYSAYTAQPTQGYAQTTQAYGQQSYGTYGQPTDVSYTQAQTTATYGQTAYATSYGQPPTGYTTPTAPQAYSQPVQGYGTGAYDTTTATVTTTQASYAAQSAYGTQPAYPAYGQQPAATAPTRPQDGNKPTETSQPQSSTGGYNQPSLGYGQSNYSYPQVPGSYPMQPVTAPPSYPPTSYSSTQPTSYDQSSYSQQNTYGQPSSYGQQSSYGQQSSYGQQPPTSYPPQTGSYSQAPSQYSQQSSSYGQQ
- binding result: binds

Reference: publication PMC12107149 (Proceedings of the National Academy of Sciences of the …, 2022)
